Assay results published in the Human Domainome abundance scans (Beltran et al. 2025).
± gives the uncertainty stated by the source.

B1: POU domain, class 4, transcription factor 3, residues 185 to 256; numbered along this chain, Q15319 (parent)
chain: RELEAFAERFKQRRIKLGVTQADVGAALANLKIPGVGSLSQSTICRFESLTLSHNNMIALKPVLQAWLEEAE

Variants of: B1
Assay: abundance fitness (aPCA) (normalised: wild type 0, dead -1); higher = more abundant; growth selection in yeast, the domain comes from the species named
Details: Homo sapiens

Variant	abundance fitness
RELEAFAERFKQRRIKLGVTQADVGAALANLKIPGVGSLSQSTICRFESLTLSHNNMSALKPVLQAWLEEAE [I58S]	-0.034 ± 0.055
RELEAFAERFKQRRIKLGVTQADVGAALANLKIPGVGSLSQSTICRFESLTLSHNNMTALKPVLQAWLEEAE [I58T]	-0.044 ± 0.072
RELEAFAERFKQRRIKLGVTQADVGAALANLKIPGVGSLSQSTICRFESLTLSHNNMYALKPVLQAWLEEAE [I58Y]	-0.123 ± 0.082
RELEAFAERFKQRRIKLGVTQADVGAALANLKIPGVGSLSQSTICRFESLTLSHNNMIGLKPVLQAWLEEAE [A59G]	-0.085 ± 0.18
RELEAFAERFKQRRIKLGVTQADVGAALANLKIPGVGSLSQSTICRFESLTLSHNNMILLKPVLQAWLEEAE [A59L]	-0.393 ± 0.39
RELEAFAERFKQRRIKLGVTQADVGAALANLKIPGVGSLSQSTICRFESLTLSHNNMISLKPVLQAWLEEAE [A59S]	-0.514 ± 0.4
RELEAFAERFKQRRIKLGVTQADVGAALANLKIPGVGSLSQSTICRFESLTLSHNNMIAAKPVLQAWLEEAE [L60A]	-0.289 ± 0.17
RELEAFAERFKQRRIKLGVTQADVGAALANLKIPGVGSLSQSTICRFESLTLSHNNMIAGKPVLQAWLEEAE [L60G]	-0.638 ± 0.5
RELEAFAERFKQRRIKLGVTQADVGAALANLKIPGVGSLSQSTICRFESLTLSHNNMIAKKPVLQAWLEEAE [L60K]	-0.859 ± 0.3
RELEAFAERFKQRRIKLGVTQADVGAALANLKIPGVGSLSQSTICRFESLTLSHNNMIAQKPVLQAWLEEAE [L60Q]	-0.376 ± 0.24
RELEAFAERFKQRRIKLGVTQADVGAALANLKIPGVGSLSQSTICRFESLTLSHNNMIARKPVLQAWLEEAE [L60R]	-0.845 ± 0.25
RELEAFAERFKQRRIKLGVTQADVGAALANLKIPGVGSLSQSTICRFESLTLSHNNMIALFPVLQAWLEEAE [K61F]	-0.36 ± 0.055
RELEAFAERFKQRRIKLGVTQADVGAALANLKIPGVGSLSQSTICRFESLTLSHNNMIALHPVLQAWLEEAE [K61H]	-0.105 ± 0.062
RELEAFAERFKQRRIKLGVTQADVGAALANLKIPGVGSLSQSTICRFESLTLSHNNMIALIPVLQAWLEEAE [K61I]	-0.128 ± 0.069
RELEAFAERFKQRRIKLGVTQADVGAALANLKIPGVGSLSQSTICRFESLTLSHNNMIALLPVLQAWLEEAE [K61L]	-0.217 ± 0.044
RELEAFAERFKQRRIKLGVTQADVGAALANLKIPGVGSLSQSTICRFESLTLSHNNMIALMPVLQAWLEEAE [K61M]	0.02 ± 0.1
RELEAFAERFKQRRIKLGVTQADVGAALANLKIPGVGSLSQSTICRFESLTLSHNNMIALNPVLQAWLEEAE [K61N]	-0.658 ± 0.092
RELEAFAERFKQRRIKLGVTQADVGAALANLKIPGVGSLSQSTICRFESLTLSHNNMIALPPVLQAWLEEAE [K61P]	-1.12 ± 0.18
RELEAFAERFKQRRIKLGVTQADVGAALANLKIPGVGSLSQSTICRFESLTLSHNNMIALQPVLQAWLEEAE [K61Q]	-0.222 ± 0.11

Variant	abundance fitness
RELEAFAERFKQRRIKLGVTQADVGAALANLKIPGVGSLSQSTICRFESLTLSHNNMIALTPVLQAWLEEAE [K61T]	-0.061 ± 0.058
RELEAFAERFKQRRIKLGVTQADVGAALANLKIPGVGSLSQSTICRFESLTLSHNNMIALYPVLQAWLEEAE [K61Y]	-0.038 ± 0.058
RELEAFAERFKQRRIKLGVTQADVGAALANLKIPGVGSLSQSTICRFESLTLSHNNMIALKAVLQAWLEEAE [P62A]	-0.376 ± 0.043
RELEAFAERFKQRRIKLGVTQADVGAALANLKIPGVGSLSQSTICRFESLTLSHNNMIALKCVLQAWLEEAE [P62C]	-0.565 ± 0.053
RELEAFAERFKQRRIKLGVTQADVGAALANLKIPGVGSLSQSTICRFESLTLSHNNMIALKDVLQAWLEEAE [P62D]	-0.413 ± 0.081
RELEAFAERFKQRRIKLGVTQADVGAALANLKIPGVGSLSQSTICRFESLTLSHNNMIALKEVLQAWLEEAE [P62E]	-0.23 ± 0.049
RELEAFAERFKQRRIKLGVTQADVGAALANLKIPGVGSLSQSTICRFESLTLSHNNMIALKFVLQAWLEEAE [P62F]	-0.461 ± 0.058
RELEAFAERFKQRRIKLGVTQADVGAALANLKIPGVGSLSQSTICRFESLTLSHNNMIALKGVLQAWLEEAE [P62G]	-0.244 ± 0.036
RELEAFAERFKQRRIKLGVTQADVGAALANLKIPGVGSLSQSTICRFESLTLSHNNMIALKHVLQAWLEEAE [P62H]	-0.109 ± 0.12
RELEAFAERFKQRRIKLGVTQADVGAALANLKIPGVGSLSQSTICRFESLTLSHNNMIALKIVLQAWLEEAE [P62I]	-0.753 ± 0.1
RELEAFAERFKQRRIKLGVTQADVGAALANLKIPGVGSLSQSTICRFESLTLSHNNMIALKKVLQAWLEEAE [P62K]	-0.177 ± 0.052
RELEAFAERFKQRRIKLGVTQADVGAALANLKIPGVGSLSQSTICRFESLTLSHNNMIALKLVLQAWLEEAE [P62L]	-0.53 ± 0.028
RELEAFAERFKQRRIKLGVTQADVGAALANLKIPGVGSLSQSTICRFESLTLSHNNMIALKMVLQAWLEEAE [P62M]	-0.56 ± 0.046
RELEAFAERFKQRRIKLGVTQADVGAALANLKIPGVGSLSQSTICRFESLTLSHNNMIALKNVLQAWLEEAE [P62N]	-0.371 ± 0.094
RELEAFAERFKQRRIKLGVTQADVGAALANLKIPGVGSLSQSTICRFESLTLSHNNMIALKQVLQAWLEEAE [P62Q]	-0.393 ± 0.049
RELEAFAERFKQRRIKLGVTQADVGAALANLKIPGVGSLSQSTICRFESLTLSHNNMIALKRVLQAWLEEAE [P62R]	-0.376 ± 0.036
RELEAFAERFKQRRIKLGVTQADVGAALANLKIPGVGSLSQSTICRFESLTLSHNNMIALKSVLQAWLEEAE [P62S]	-0.188 ± 0.031
RELEAFAERFKQRRIKLGVTQADVGAALANLKIPGVGSLSQSTICRFESLTLSHNNMIALKTVLQAWLEEAE [P62T]	-0.221 ± 0.042
RELEAFAERFKQRRIKLGVTQADVGAALANLKIPGVGSLSQSTICRFESLTLSHNNMIALKVVLQAWLEEAE [P62V]	-0.378 ± 0.033
